Experimental findings from article PMC2897846 are described below.

The target of the assay is CD40 on human B cells (human (endogenous in B cells from PBMC)) (UniProt P25942).
UniProt P25942, sequence (P25942 21-277): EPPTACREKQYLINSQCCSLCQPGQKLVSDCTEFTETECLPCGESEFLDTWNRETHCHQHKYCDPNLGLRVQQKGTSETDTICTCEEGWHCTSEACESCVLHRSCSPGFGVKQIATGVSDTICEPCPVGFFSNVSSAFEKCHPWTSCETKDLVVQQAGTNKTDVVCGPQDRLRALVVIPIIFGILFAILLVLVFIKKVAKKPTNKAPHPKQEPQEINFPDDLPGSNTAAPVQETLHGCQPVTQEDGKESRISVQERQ

Turning to “CD40 ligand (CD40L, CD154) incorporated into HIV virions (from UniProt P29965 1-261)”, the intracellular AID protein (flow cytometry) in CD19+ B cells exposed to CD40L+ HIV NL4-3 for three days (% of CD19+ cells) turned out to be 2.11.
